Data: publication PMC4036328

Key:
[1] = biological target: MjNhaP1 D161A mutant (NhaP1 Na+/H+ antiporter from Methanocaldococcus jannaschii) (Methanocaldococcus jannaschii) (UniProt Q60362); assay: Western blotting; dimers observed by Western blotting; data not shown; no conditions told
[2] = biological target: MjNhaP1 N160A mutant (NhaP1 Na+/H+ antiporter from Methanocaldococcus jannaschii) (Methanocaldococcus jannaschii) (UniProt Q60362); assay: as above

stoichiometry N [1]	stoichiometry N [2]	Substance
2	–	MjNhaP1 D161A mutant (NhaP1 Na+/H+ antiporter from Methanocaldococcus jannaschii) (from UniProt Q60362 1-426) (natural protein)
–	2	MjNhaP1 N160A mutant (NhaP1 Na+/H+ antiporter from Methanocaldococcus jannaschii) (from UniProt Q60362 1-426) (natural protein)
